In PMC3637639:

Key:
[1] = target: β2YFP nAChR subunit (mouse) (UniProt Q9ERK7); test: FRET or BRET; sensitized acceptor emission FRET between CFP-RIC-3 (donor) and α7-Venus, β2YFP (with nonfluorescent α4) or α4YFP (with nonfluorescent β2) co-transfected in living HEK293T cells at cDNA ratios of CFP-RIC-3 to subunit of 0.2:1, 0.5:1, 1:1 or 5:1
[2] = target: α7-Venus nAChR subunit (mouse) (UniProt P49582); test: as above
Chain of UniProt P49582 (P49582 23-502): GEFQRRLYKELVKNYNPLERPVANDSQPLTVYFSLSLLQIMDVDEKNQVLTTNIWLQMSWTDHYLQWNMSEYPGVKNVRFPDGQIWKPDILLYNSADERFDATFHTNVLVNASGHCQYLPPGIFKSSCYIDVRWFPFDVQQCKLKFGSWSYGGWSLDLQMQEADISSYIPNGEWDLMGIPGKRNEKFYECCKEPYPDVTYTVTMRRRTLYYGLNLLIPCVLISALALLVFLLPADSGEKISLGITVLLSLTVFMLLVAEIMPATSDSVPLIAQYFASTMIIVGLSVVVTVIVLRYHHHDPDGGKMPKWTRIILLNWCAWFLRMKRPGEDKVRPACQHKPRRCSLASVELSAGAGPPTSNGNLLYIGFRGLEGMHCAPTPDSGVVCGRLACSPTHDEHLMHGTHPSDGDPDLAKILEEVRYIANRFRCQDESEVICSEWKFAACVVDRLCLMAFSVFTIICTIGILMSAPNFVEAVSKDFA

Chain of UniProt Q9ERK7 (Q9ERK7 26-501): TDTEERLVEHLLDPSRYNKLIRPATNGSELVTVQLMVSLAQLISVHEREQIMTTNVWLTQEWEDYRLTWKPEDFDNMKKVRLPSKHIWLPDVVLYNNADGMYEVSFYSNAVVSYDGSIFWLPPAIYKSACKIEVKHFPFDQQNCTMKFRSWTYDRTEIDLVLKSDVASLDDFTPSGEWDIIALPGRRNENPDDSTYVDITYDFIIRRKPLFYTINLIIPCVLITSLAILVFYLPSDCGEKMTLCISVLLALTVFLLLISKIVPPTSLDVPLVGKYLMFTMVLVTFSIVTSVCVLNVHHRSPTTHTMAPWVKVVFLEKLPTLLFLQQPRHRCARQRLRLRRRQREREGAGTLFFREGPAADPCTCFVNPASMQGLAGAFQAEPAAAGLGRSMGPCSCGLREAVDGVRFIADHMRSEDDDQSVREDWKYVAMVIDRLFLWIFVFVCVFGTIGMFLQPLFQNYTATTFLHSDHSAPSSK

## CFP-RIC-3 (cyan fluorescent protein fused to the N terminus of RIC-3) (from UniProt Q7Z5B4 29-369) (natural protein)
[1]
  FRET efficiency (CFP-RIC-3 to β2YFP 0.2:1): 10.8%
  FRET efficiency (CFP-RIC-3 to β2YFP 0.5:1): 10.7%
[2]
  FRET efficiency (CFP-RIC-3 to α7-Venus 1:1): 26%
